Results: article PMC3120933 (Journal of the American Chemical Society, 2011)

T1: cav(1-104), truncated caveolin-1 with intramembrane and C-terminal domains deleted (human, UniProt Q03135 1-104)
T1 sequence (looked up): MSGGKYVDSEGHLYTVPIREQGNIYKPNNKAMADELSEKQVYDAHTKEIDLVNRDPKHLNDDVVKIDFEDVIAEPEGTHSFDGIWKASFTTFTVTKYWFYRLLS


Molecular target: T1, cav(1-104), truncated caveolin-1 with …
Experiment: ITC

Row | Binder | dH1 (first binding site) [kcal/mol] | dH2 (second binding site) [kcal/mol]
1 | YTSLIHSLIEESQNQQEKHEKEIIDIERWASMLQLF (designed binder) [caveolin ligand 5 fused to MBP] | -26.1 | 83.9
2 | YTSLIHSLIEESQNQQEKQEKELMELERWGSMLKCF (designed binder) [caveolin ligand 4 fused to MBP] | -20.6 | 44.8
